Reference: the supplement of paper PMC9876800

Test system: peptide library, one residue held at a place counted from the S/T acceptor
Assay: relative phosphorylation of the sub-library (ratio to the mean residue at this position); higher = residue favoured
Method in brief: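 Each biotinylated degenerate peptide sub-library fixed one residue at one position around a central Ser/Thr and was incubated with a purified recombinant kinase, a human or orthologue construct, in 384-well plates. The 90 min reactions, under kinase-specific conditions, contained 50 μM peptide and 50 μM ATP spiked with γ-32P-ATP. Phosphorylation was read by phosphorimaging spots on streptavidin membranes and quantifying them by densitometry. Relative sub-library phosphorylation expresses each value as a ratio to the mean residue at that position.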

Sequence of MAPK8, construct: aa1-384, human (P45983 1-384, looked up): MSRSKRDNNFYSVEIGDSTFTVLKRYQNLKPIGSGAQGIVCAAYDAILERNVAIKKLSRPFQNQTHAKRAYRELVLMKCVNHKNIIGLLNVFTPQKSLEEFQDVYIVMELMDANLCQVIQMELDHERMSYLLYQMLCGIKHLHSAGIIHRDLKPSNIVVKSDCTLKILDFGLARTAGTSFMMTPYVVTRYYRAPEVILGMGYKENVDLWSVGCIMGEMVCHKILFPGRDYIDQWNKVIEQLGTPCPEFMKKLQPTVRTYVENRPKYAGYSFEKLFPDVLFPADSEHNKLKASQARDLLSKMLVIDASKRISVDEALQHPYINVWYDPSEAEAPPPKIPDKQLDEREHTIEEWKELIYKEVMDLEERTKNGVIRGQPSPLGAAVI
Sequence of MAPK13, construct: Full length, human (O15264 whole entry, looked up): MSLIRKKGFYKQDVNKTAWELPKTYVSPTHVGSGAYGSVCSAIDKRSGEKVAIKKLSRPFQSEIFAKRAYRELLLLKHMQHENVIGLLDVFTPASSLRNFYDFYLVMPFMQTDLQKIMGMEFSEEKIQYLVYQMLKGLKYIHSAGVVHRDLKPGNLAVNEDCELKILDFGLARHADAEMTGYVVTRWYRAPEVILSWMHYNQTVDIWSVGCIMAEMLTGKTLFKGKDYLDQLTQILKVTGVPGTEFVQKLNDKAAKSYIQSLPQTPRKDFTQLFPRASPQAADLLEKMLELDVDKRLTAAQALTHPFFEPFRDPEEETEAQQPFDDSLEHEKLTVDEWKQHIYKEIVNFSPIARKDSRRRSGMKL
Sequence of MAP3K15, construct: aa631-922, human (Q6ZN16 631-922, looked up): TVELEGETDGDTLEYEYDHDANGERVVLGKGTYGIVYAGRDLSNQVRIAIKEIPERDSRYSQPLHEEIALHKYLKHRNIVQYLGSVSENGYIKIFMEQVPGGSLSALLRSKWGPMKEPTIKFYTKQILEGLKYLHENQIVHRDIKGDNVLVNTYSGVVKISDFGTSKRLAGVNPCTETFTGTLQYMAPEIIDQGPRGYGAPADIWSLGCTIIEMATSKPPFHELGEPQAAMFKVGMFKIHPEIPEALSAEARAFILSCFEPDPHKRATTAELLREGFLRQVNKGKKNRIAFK

MAP3K15, construct: aa631-922, human (from UniProt Q6ZN16)
relative phosphorylation
Conditions | at +1 | at +2 | at +3 | at +4 | at -1 | at -2 | at -3 | at -4 | at -5
A fixed | 0.514 | 0.74 | 1.02 | 0.926 | 1.01 | 1.79 | 1.14 | 1.02 | 0.99
D fixed | 0.2 | 0.473 | 0.377 | 0.494 | 0.459 | 0.498 | 0.88 | 0.771 | 0.79
E fixed | 0.257 | 0.337 | 0.401 | 0.534 | 0.471 | 0.513 | 0.73 | 0.739 | 0.743
F fixed | 1.94 | 1.79 | 0.942 | 0.898 | 0.745 | 0.735 | 0.771 | 0.855 | 1.1
G fixed | 0.39 | 0.733 | 1.07 | 1.07 | 2.13 | 1.26 | 1.04 | 1.29 | 1.24
H fixed | 1.08 | 1.01 | 1.04 | 1.04 | 0.94 | 0.852 | 1.07 | 0.963 | 1.17
I fixed | 1.94 | 0.567 | 1.09 | 1.13 | 0.415 | 0.859 | 0.687 | 0.668 | 0.761
K fixed | 0.39 | 1.48 | 1.14 | 1.82 | 1.43 | 0.864 | 1.18 | 1.06 | 1.05
L fixed | 1.41 | 0.76 | 1.01 | 0.885 | 0.828 | 0.983 | 0.799 | 0.788 | 0.759
M fixed | 1.18 | 0.952 | 1.02 | 0.926 | 0.963 | 1.07 | 0.837 | 0.896 | 0.929
N fixed | 0.439 | 0.782 | 0.971 | 0.91 | 1.28 | 1.26 | 1.18 | 1.19 | 0.988
P fixed | 0.352 | 0.676 | 1.08 | 0.971 | 1.15 | 1.63 | 1.6 | 1.37 | 1.2
Q fixed | 0.604 | 0.79 | 0.917 | 1.1 | 1.07 | 1.13 | 1.26 | 1.1 | 1.08
R fixed | 0.481 | 1.7 | 1.39 | 1.2 | 1.73 | 0.885 | 1.21 | 1.15 | 1.03
V fixed | 1.84 | 0.617 | 1.12 | 0.866 | 0.524 | 1.13 | 0.776 | 0.888 | 1.24
W fixed | 1.83 | 1.02 | 1.19 | 1.15 | 0.745 | 0.693 | 0.917 | 1.08 | 1.02
Y fixed | 2.16 | 2.58 | 1.24 | 1.07 | 1.12 | 0.848 | 0.925 | 1.18 | 0.915
pThr fixed | 0.588 | 0.497 | 0.73 | 0.394 | 0.639 | 1.06 | 1.04 | 0.928 | 1.09
pTyr fixed | 0.529 | 0.403 | 0.951 | 0.582 | 0.832 | 0.888 | 1.02 | 0.936 | 1.2

MAPK8, construct: aa1-384, human (from UniProt P45983)
relative phosphorylation
Conditions | at +1 | at +2 | at +3 | at +4 | at -1 | at -2 | at -3 | at -4 | at -5
A fixed | 0.237 | 0.912 | 1.46 | 1.17 | 1.03 | 2.05 | 1.17 | 1.13 | 1.18
D fixed | 0.295 | 1.06 | 1.86 | 1.25 | 0.995 | 0.9 | 1.65 | 1.61 | 1.42
E fixed | 0.222 | 0.814 | 1.86 | 1.34 | 0.888 | 0.556 | 1.5 | 1.41 | 1.06
F fixed | 0.309 | 0.673 | 0.845 | 0.778 | 0.6 | 0.456 | 0.663 | 0.858 | 0.94
G fixed | 0.676 | 1.22 | 1.49 | 1.07 | 1.31 | 0.724 | 1.1 | 1.03 | 1.06
H fixed | 0.21 | 0.841 | 1.02 | 1.05 | 0.938 | 0.446 | 0.937 | 1.07 | 1.07
I fixed | 0.247 | 1.67 | 0.698 | 1.11 | 0.674 | 1.41 | 0.797 | 0.728 | 0.763
K fixed | 0.195 | 0.501 | 0.528 | 0.698 | 0.95 | 0.348 | 0.571 | 0.75 | 0.791
L fixed | 0.322 | 1.45 | 0.881 | 1.02 | 1.45 | 2.55 | 0.898 | 0.753 | 0.685
M fixed | 0.25 | 2 | 0.922 | 1 | 1.43 | 1.3 | 0.984 | 0.962 | 0.744
N fixed | 0.191 | 0.793 | 0.84 | 0.819 | 0.861 | 0.469 | 1.06 | 0.846 | 0.826
P fixed | 12.8 | 0.568 | 0.629 | 1.57 | 1.52 | 2.46 | 1.33 | 1.25 | 1.39
Q fixed | 0.193 | 0.851 | 0.826 | 0.913 | 1.37 | 0.665 | 1.01 | 1.08 | 1.21
R fixed | 0.18 | 0.575 | 0.619 | 0.547 | 0.886 | 0.484 | 0.879 | 0.778 | 0.974
V fixed | 0.254 | 1.87 | 0.809 | 0.909 | 0.844 | 1.48 | 0.91 | 0.891 | 0.849
W fixed | 0.196 | 0.53 | 0.878 | 0.937 | 0.582 | 0.338 | 0.727 | 0.993 | 0.858
Y fixed | 0.213 | 0.663 | 0.837 | 0.81 | 0.671 | 0.381 | 0.808 | 0.865 | 1.19
pThr fixed | 0.612 | 2.32 | 1.64 | 1.91 | 0.582 | 1.28 | 1.14 | 1.37 | 1.34
pTyr fixed | 0.866 | 1.99 | 8.3 | 3.22 | 1.84 | 1.25 | 1.58 | 2.57 | 1.93

MAPK13, construct: Full length, human (from UniProt O15264)
relative phosphorylation
Conditions | at +1 | at +2 | at +3 | at +4 | at -1 | at -2 | at -3 | at -4 | at -5
A fixed | 0.304 | 0.921 | 1.42 | 1.32 | 1.31 | 1.25 | 1.26 | 1.2 | 1.3
D fixed | 0.162 | 0.572 | 1 | 1.09 | 1.11 | 0.486 | 1.09 | 1.46 | 1.26
E fixed | 0.123 | 0.497 | 1.07 | 0.846 | 0.937 | 0.434 | 1.21 | 1.39 | 1.34
F fixed | 0.148 | 0.663 | 0.413 | 1.06 | 0.768 | 0.457 | 1.04 | 0.933 | 0.923
G fixed | 0.975 | 1.31 | 1.13 | 1.39 | 0.948 | 0.896 | 1.64 | 1.16 | 1.33
H fixed | 0.143 | 0.694 | 0.936 | 0.884 | 0.927 | 0.405 | 0.773 | 0.879 | 1.05
I fixed | 0.172 | 1.27 | 0.948 | 1.02 | 0.529 | 1.52 | 0.912 | 1.02 | 0.923
K fixed | 0.148 | 0.751 | 0.57 | 0.665 | 0.681 | 0.25 | 0.522 | 0.662 | 0.855
L fixed | 0.208 | 1.27 | 1.08 | 0.988 | 1.24 | 2.47 | 0.884 | 1.05 | 0.974
M fixed | 0.182 | 1.04 | 0.659 | 1.28 | 1.77 | 1.49 | 1.14 | 1.22 | 1.16
N fixed | 0.16 | 0.438 | 0.64 | 0.849 | 0.782 | 0.512 | 0.815 | 0.983 | 1.1
P fixed | 12.9 | 1.05 | 2.58 | 0.942 | 2.31 | 3.75 | 1.08 | 0.999 | 0.962
Q fixed | 0.613 | 0.805 | 0.853 | 0.754 | 1.15 | 0.554 | 0.999 | 1.04 | 0.915
R fixed | 0.171 | 1.4 | 0.715 | 0.559 | 0.698 | 0.353 | 0.542 | 0.653 | 0.792
V fixed | 0.353 | 2.28 | 1.18 | 1.41 | 0.635 | 1.53 | 1.24 | 0.939 | 0.652
W fixed | 0.126 | 0.88 | 1.01 | 0.868 | 0.486 | 0.279 | 0.837 | 0.745 | 0.721
Y fixed | 0.14 | 1.16 | 0.791 | 1.07 | 0.711 | 0.36 | 1.02 | 0.665 | 0.735
pThr fixed | 0.158 | 1.67 | 0.939 | 0.853 | 0.309 | 0.376 | 1.14 | 1.49 | 1.7
pTyr fixed | 0.126 | 0.994 | 0.837 | 0.652 | 0.729 | 0.339 | 1.07 | 1.38 | 1.19
